We go through one protein from publication PMC6388921, “An alkaline active feruloyl-CoA synthetase from soil metagenome as a potential key enzyme for lignin valorization strategies” (PLoS ONE, 2019).

For orientation: stoichiometry N means the number of molecules, sites or subunits per partner or assembly.

The series concerns the molecule itself. The series can be described thus: dynamic light scattering; FCS1 at 1 mg/mL in 20 mM Tris-HCl pH 7; hydrodynamic radius converted to mass assuming a spherical molecule.

B1: feruloyl-CoA synthetase FCS1 (enzyme, UniProt A0A2P1BT06 1-707, looked up)
chain: MGERRFSNQQIDRLLRPKSVAVIGASDRKGALGATLLNNLVQYEFSGDIYPVNPKRDELLGLKVYHEVAELPEGIDCAVLAIPRPFVIDTVRQLAQRGCGAVVIYSAGFSEAGEEGMKDQLELAAIAAEYGMVIEGPNCLGCTNYVERVPLTFVETNMQTPPKGTRAVGIASQSGALAAVLATALHPRGLYVSSSVSTGNEAASGVEDYVEWLVDDEDTHVIAMYVESLRRPKAFIAAARRAHAAGKPIVMLHPGKSNKAQESAATHTGAMAGDYALMKTKLAREGVIFADTLEELADITEIALRCRALPGANMAVLGESGALRGLAFDIAEDIGLDLIHLDDDNSPALRAILPDFVPVSNPTDITALGLSEPEIYTKVLTALLEDERIGSVVASIIQSDPITSGIKFPHIIKVLDGGTFAKPLVFAGVDEGATVPKEYIDGLRKVGIPWFPSTERAYRAIARLADLSKRDLADNSGDPIVVPGLDAVSGVVPEYKAKELLRPLGIAFPPSQFAANAEAAAAAARAIGYPVVMKAQAAALGHKSDAGGVILNLKTDDEVRDAFARIYGNVEAYDRSIALDGVLIEKMGKMGTEMIVGAKNDPQWGPVVLAGFGGVTAEILKDVKLFTPEMDAAAVQRGLLELKQAPILKGYRGAPALDVAALAELIVQIGRVMAGNPSIREIDLNPVIIHPAGEGVAALDALMLVER
notes: feruloyl-CoA synthetase FCS1 from the metagenome of a lignin-degrading microbial consortium from sugarcane plantation soil; GenBank MG214406; codon-optimised, synthesised gene; predicted molecular mass 74.9 kDa; No tag cleavage is described
As to B1, the “stoichiometry N” value stood at 2.
